Data published in patent publication US7507799.
One block for each substance: values may come before it.

Key:
[1] = system: T1, rat BDNF secreted by adenovirus-infected 293T or endothelial cells (proforms of 30 kDa and 28 kDa)
T1 sequence: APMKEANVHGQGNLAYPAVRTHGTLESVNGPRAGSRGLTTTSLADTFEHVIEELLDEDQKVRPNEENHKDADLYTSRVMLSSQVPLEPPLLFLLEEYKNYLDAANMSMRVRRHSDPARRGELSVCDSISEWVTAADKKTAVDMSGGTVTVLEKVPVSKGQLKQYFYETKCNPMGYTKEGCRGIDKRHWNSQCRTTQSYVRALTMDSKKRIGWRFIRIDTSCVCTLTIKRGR

[2] = system: His-tagged cleavage resistant pro-NGF (point mutant, K-R cleavage site at 120,121 mutated to A-A)
[3] = target: trk A on trk A-overexpressing PC12 cells; test: cell-based or functional assay
[4] = target: p75 on vascular smooth muscle cell line (p75Ts-Tag-SMC); test: cell-based or functional assay
[5] = target: trk A (autophosphorylation assay of Example 5); test: cell-based or functional assay
[6] = target: p75NTR on A875 cells (UniProt P08138); test: whole-cell competition against 1 nM 125I-NGF on cells expressing only p75 (A875 cells)
[7] = target: TrkA on 293 cells; test: whole-cell competition against 1 nM 125I-NGF on 293 cells expressing only trk A
TrkA on 293 cells, sequence (P04629 33-796): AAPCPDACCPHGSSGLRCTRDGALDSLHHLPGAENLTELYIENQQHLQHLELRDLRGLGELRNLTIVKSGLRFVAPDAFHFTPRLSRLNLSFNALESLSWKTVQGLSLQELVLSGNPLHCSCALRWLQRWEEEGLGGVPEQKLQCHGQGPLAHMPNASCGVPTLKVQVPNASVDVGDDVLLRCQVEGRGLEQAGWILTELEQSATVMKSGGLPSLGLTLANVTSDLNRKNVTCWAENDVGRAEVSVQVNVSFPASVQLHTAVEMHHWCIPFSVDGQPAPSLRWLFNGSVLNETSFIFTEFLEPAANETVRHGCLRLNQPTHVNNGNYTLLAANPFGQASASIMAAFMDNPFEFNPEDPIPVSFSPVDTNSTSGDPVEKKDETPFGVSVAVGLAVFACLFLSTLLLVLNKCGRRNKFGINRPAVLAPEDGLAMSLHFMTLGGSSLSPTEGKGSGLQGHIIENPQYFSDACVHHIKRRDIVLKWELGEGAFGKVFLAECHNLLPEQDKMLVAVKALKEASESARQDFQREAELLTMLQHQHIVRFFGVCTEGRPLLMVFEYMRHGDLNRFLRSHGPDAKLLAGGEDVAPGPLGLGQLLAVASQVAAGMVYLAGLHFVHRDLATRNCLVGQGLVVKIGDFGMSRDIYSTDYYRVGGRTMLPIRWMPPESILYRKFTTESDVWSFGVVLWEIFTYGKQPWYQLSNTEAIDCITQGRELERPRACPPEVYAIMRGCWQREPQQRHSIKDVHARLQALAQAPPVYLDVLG

commercial mature NGF (Enzo Products for Science, Farmingdale, N.Y.) (ligand), sequence (P01139 122-241): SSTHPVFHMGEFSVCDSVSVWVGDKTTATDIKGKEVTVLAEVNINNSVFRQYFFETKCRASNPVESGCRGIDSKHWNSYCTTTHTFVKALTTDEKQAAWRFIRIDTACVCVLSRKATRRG
plasmin, sequence (P00747 20-580): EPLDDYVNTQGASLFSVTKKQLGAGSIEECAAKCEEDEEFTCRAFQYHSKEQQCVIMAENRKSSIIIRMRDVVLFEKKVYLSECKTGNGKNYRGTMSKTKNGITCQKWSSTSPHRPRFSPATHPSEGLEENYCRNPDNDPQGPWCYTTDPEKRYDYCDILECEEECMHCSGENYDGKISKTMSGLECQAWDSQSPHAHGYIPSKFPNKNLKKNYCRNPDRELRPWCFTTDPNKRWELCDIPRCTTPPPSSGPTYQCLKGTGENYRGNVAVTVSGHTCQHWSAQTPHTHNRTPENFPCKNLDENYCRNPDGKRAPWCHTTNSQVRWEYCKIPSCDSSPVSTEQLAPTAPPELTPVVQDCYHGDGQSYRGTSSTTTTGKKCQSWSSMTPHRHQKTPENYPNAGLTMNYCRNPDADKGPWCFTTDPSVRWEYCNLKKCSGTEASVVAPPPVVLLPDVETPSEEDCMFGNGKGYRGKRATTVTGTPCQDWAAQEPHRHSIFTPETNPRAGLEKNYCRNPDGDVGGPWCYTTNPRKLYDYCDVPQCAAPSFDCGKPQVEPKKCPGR
plasmin, sequence (P00747 581-810): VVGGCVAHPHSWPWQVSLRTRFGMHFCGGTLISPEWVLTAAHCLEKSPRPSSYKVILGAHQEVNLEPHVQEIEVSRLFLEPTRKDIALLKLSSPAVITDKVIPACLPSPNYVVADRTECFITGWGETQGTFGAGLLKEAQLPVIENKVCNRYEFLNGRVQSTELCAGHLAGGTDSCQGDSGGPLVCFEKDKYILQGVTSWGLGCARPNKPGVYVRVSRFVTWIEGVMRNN
p75NTR on A875 cells, sequence (P08138 29-427): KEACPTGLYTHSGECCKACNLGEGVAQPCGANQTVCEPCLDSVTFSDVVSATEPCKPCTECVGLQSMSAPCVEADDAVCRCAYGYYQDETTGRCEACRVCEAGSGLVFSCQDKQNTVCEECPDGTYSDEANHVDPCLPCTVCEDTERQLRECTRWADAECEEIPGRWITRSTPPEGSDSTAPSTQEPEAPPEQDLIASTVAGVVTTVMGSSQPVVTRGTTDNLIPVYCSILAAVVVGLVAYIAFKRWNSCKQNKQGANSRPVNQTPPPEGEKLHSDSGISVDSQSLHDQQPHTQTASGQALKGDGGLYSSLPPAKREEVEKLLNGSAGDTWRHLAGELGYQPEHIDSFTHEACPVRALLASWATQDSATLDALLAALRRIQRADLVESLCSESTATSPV
commercial mature NGF (Enzo Products for Science, Farmingdale, N.Y.) (ligand; other documents disagree on this pair), sequence (P01139 122-241): as the sequence (P01139 122-241) above

Substance: plasmin
proteolytic cleavage in endothelial media, Western blot [1]: In endothelial media, only plasmin and MMP-7 appeared to cleave the large proform | proteolytic cleavage, Western blot [2]: Pro-NGF was cleaved by plasmin to a 13 kD form

PC12 cell neuritogenesis [3]: 0.1 nM | TUNEL positive cells at 18 h (% TUNEL positive cells at 2 nM) [4]: 20 | trk A autophosphorylation [5]: 0.2 nM | IC50 [6]: 1 nM
Substance: commercial mature NGF (Enzo Products for Science, Farmingdale, N.Y.) (ligand)

PC12 cell neuritogenesis [3]: 0.1 nM | trk A autophosphorylation [5]: 0.2 nM
Substance: His-tagged native NGF, completely processed to the mature form of 13.5 kDa (from UniProt P01139 122-241) (ligand)

IC50 [7]: 1.2 nM
Substance: commercial mature NGF (Enzo Products for Science, Farmingdale, N.Y.) (ligand; other documents disagree on this pair)
